Results on one substance are retold here after paper PMC12041282.

This test addresses ectodomain of the SFTSV Gn glycoprotein (amino acids 20-453), Gn-his (SFTSV). The test is described as follows: SPR. On the technique in general: Surface plasmon resonance follows binding to a sensor surface in real time, without labels.

As usually defined, the Kd is the free concentration of one partner at which half of the binding sites on the other are occupied at equilibrium, for simple one-to-one binding. With “Recombinant human LRP1 CLII-Fc (Fc fusion)”, the dissociation constant Kd worked out at 16.8 nM.
